# In patent US20060275764:
# B1: MASP-2 (MBL-associated serine protease 2), wild type, recombinant (protein)
# chain: TPLGPKWPEPVFGRLASPGFPGEYANDQERRWTLTAPPGYRLRLYFTHFDLELSHLCEYDFVKLSSGAKVLATLCGQESTDTERAPGKDTFYSLGSSLDITFRSDYSNEKPFTGFEAFYAAEDIDECQVAPGEAPTCDHHCHNHLGGFYCSCRAGYVLHRNKRTCSALCSGQVFTQRSGELSSPEYPRPYPKLSSCTYSISLEEGFSVILDFVESFDVETHPETLCPYDFLKIQTDREEHGPFCGKTLPHRIETKSNTVTITFVTDESGDHTGWKIHYTSTAQPCPYPMAPPNGHVSPVQAKYILKDSFSIFCETGYELLQGHLPLKSFTAVCQKDGSWDRPMPACSIVDCGPPDDLPSGRVEYITGPGVTTYKAVIQYSCEETFYTMKVNDGKYVCEADGFWTSSKGEKSLPVCEPVCGLSARTTGGRIYGGQKAKPGDFPWQVLILGGTTAAGALLYDNWVLTAAHAVYEQKHDASALDIRMGTLKRLSPHYTQAWSEAVFIHEGYTHDAGFDNDIALIKLNNKVVINSNITPICLPRKEAESFMRTDDIGTASGWGLTQRGFLARNLMYVDIPIVDHQKCTAAYEKPPYPRGSVTANMLCAGLESGGKDSCRGDSGGALVFLDSETERWFVGGIVSWGSMNCGEAGQYGVYTKVINYIPWIENIISDF
# Target: Mannan-binding lectin (MBL), P11226
# Sequence (P11226 21-248): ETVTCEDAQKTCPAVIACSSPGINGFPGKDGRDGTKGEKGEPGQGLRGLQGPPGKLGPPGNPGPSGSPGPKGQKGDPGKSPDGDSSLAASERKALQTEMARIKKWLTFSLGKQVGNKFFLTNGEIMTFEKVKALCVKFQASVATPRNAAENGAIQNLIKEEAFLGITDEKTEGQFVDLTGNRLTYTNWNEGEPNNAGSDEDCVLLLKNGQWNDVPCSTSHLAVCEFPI
protein,measurement,value
B1,MBL pathway activity (C4b deposition in mannan coated wells),Restoration of the MBL pathway was also achieved by adding recombinant MASP-2 to the patient serum
